Source: the Human Domainome abundance scans (Beltran et al. 2025)
± gives the uncertainty stated by the source.

B1: Far upstream element-binding protein 2, residues 142 to 214; numbered along this chain, Q92945 (parent)
chain: RTSMTEEYRVPDGMVGLIIGRGGEQINKIQQDSGCKVQISPDSGGLPERSVSLTGAPESVQKAKMMLDDIVSR

Variants of: B1
Experiment: abundance fitness (aPCA) (normalised: wild type 0, dead -1); higher = more abundant; growth selection in yeast, the domain comes from the species named
Conditions: Homo sapiens

First: RTSMTEEYRVPDGMVGLIIGRGGEQINKIQQDSGCKVQISPDSGGLPERSVSLTGAPESVQKHKMMLDDIVSR [A63H]
Second: RTSMTEEYRVPDGMVGLIIGRGGEQINKIQQDSGCKVQISPDSGGLPERSVSLTGAPESVQKLKMMLDDIVSR [A63L]
The abundance fitness of the first is higher: -0.528 ± 0.21 for the first, -1.46 ± 0.13 for the second.

Compared with RTSMTEEYRVPDGMVGLIIGRGGEQINKIQQDSGCKVQISPDSGGLPERSVSLTGAPESVQKMKMMLDDIVSR [A63M], RTSMTEEYRVPDGMVGLIIGRGGEQINKIQQDSGCKVQISPDSGGLPERSVSLTGAPESVQKNKMMLDDIVSR [A63N] is higher in abundance fitness: -1.24 ± 0.13 for the first, -0.661 ± 0.18 for the second.

RTSMTEEYRVPDGMVGLIIGRGGEQINKIQQDSGCKVQISPDSGGLPERSVSLTGAPESVQKPKMMLDDIVSR [A63P] and RTSMTEEYRVPDGMVGLIIGRGGEQINKIQQDSGCKVQISPDSGGLPERSVSLTGAPESVQKQKMMLDDIVSR [A63Q] are within error of each other in abundance fitness: -0.648 ± 0.066 for the first, -0.654 ± 0.085 for the second.

RTSMTEEYRVPDGMVGLIIGRGGEQINKIQQDSGCKVQISPDSGGLPERSVSLTGAPESVQKRKMMLDDIVSR [A63R] and RTSMTEEYRVPDGMVGLIIGRGGEQINKIQQDSGCKVQISPDSGGLPERSVSLTGAPESVQKSKMMLDDIVSR [A63S] are within error of each other in abundance fitness: -0.865 ± 0.054 for the first, -0.782 ± 0.066 for the second.

RTSMTEEYRVPDGMVGLIIGRGGEQINKIQQDSGCKVQISPDSGGLPERSVSLTGAPESVQKTKMMLDDIVSR [A63T] and RTSMTEEYRVPDGMVGLIIGRGGEQINKIQQDSGCKVQISPDSGGLPERSVSLTGAPESVQKVKMMLDDIVSR [A63V] are within error of each other in abundance fitness: -0.69 ± 0.078 for the first, -0.748 ± 0.062 for the second.

Going from RTSMTEEYRVPDGMVGLIIGRGGEQINKIQQDSGCKVQISPDSGGLPERSVSLTGAPESVQKWKMMLDDIVSR [A63W] to RTSMTEEYRVPDGMVGLIIGRGGEQINKIQQDSGCKVQISPDSGGLPERSVSLTGAPESVQKYKMMLDDIVSR [A63Y], the abundance fitness rises from -1.55 ± 0.2 to -0.811 ± 0.29.

RTSMTEEYRVPDGMVGLIIGRGGEQINKIQQDSGCKVQISPDSGGLPERSVSLTGAPESVQKAAMMLDDIVSR [K64A] and RTSMTEEYRVPDGMVGLIIGRGGEQINKIQQDSGCKVQISPDSGGLPERSVSLTGAPESVQKACMMLDDIVSR [K64C] are within error of each other in abundance fitness: -0.558 ± 0.045 for the first, -0.554 ± 0.069 for the second.

RTSMTEEYRVPDGMVGLIIGRGGEQINKIQQDSGCKVQISPDSGGLPERSVSLTGAPESVQKADMMLDDIVSR [K64D] and RTSMTEEYRVPDGMVGLIIGRGGEQINKIQQDSGCKVQISPDSGGLPERSVSLTGAPESVQKAEMMLDDIVSR [K64E] are within error of each other in abundance fitness: -0.567 ± 0.067 for the first, -0.653 ± 0.054 for the second.

Compared with RTSMTEEYRVPDGMVGLIIGRGGEQINKIQQDSGCKVQISPDSGGLPERSVSLTGAPESVQKAGMMLDDIVSR [K64G], RTSMTEEYRVPDGMVGLIIGRGGEQINKIQQDSGCKVQISPDSGGLPERSVSLTGAPESVQKAHMMLDDIVSR [K64H] is higher in abundance fitness: -0.757 ± 0.041 for the first, -0.442 ± 0.079 for the second.

Going from RTSMTEEYRVPDGMVGLIIGRGGEQINKIQQDSGCKVQISPDSGGLPERSVSLTGAPESVQKAIMMLDDIVSR [K64I] to RTSMTEEYRVPDGMVGLIIGRGGEQINKIQQDSGCKVQISPDSGGLPERSVSLTGAPESVQKAMMMLDDIVSR [K64M], the abundance fitness falls from -0.275 ± 0.075 to -0.457 ± 0.062.

RTSMTEEYRVPDGMVGLIIGRGGEQINKIQQDSGCKVQISPDSGGLPERSVSLTGAPESVQKANMMLDDIVSR [K64N] and RTSMTEEYRVPDGMVGLIIGRGGEQINKIQQDSGCKVQISPDSGGLPERSVSLTGAPESVQKAPMMLDDIVSR [K64P] are within error of each other in abundance fitness: -0.703 ± 0.08 for the first, -0.687 ± 0.07 for the second.

First: RTSMTEEYRVPDGMVGLIIGRGGEQINKIQQDSGCKVQISPDSGGLPERSVSLTGAPESVQKAQMMLDDIVSR [K64Q]
Second: RTSMTEEYRVPDGMVGLIIGRGGEQINKIQQDSGCKVQISPDSGGLPERSVSLTGAPESVQKARMMLDDIVSR [K64R]
The abundance fitness of the first is lower: -0.422 ± 0.063 for the first, -0.016 ± 0.037 for the second.

Going from RTSMTEEYRVPDGMVGLIIGRGGEQINKIQQDSGCKVQISPDSGGLPERSVSLTGAPESVQKASMMLDDIVSR [K64S] to RTSMTEEYRVPDGMVGLIIGRGGEQINKIQQDSGCKVQISPDSGGLPERSVSLTGAPESVQKATMMLDDIVSR [K64T], the abundance fitness rises from -0.553 ± 0.049 to -0.445 ± 0.058.

First: RTSMTEEYRVPDGMVGLIIGRGGEQINKIQQDSGCKVQISPDSGGLPERSVSLTGAPESVQKAVMMLDDIVSR [K64V]
Second: RTSMTEEYRVPDGMVGLIIGRGGEQINKIQQDSGCKVQISPDSGGLPERSVSLTGAPESVQKAWMMLDDIVSR [K64W]
The abundance fitness of the first is higher: -0.465 ± 0.044 for the first, -0.662 ± 0.049 for the second.

Compared with RTSMTEEYRVPDGMVGLIIGRGGEQINKIQQDSGCKVQISPDSGGLPERSVSLTGAPESVQKAYMMLDDIVSR [K64Y], RTSMTEEYRVPDGMVGLIIGRGGEQINKIQQDSGCKVQISPDSGGLPERSVSLTGAPESVQKAKAMLDDIVSR [M65A] is higher in abundance fitness: -0.926 ± 0.12 for the first, -0.008 ± 0.043 for the second.

RTSMTEEYRVPDGMVGLIIGRGGEQINKIQQDSGCKVQISPDSGGLPERSVSLTGAPESVQKAKCMLDDIVSR [M65C] and RTSMTEEYRVPDGMVGLIIGRGGEQINKIQQDSGCKVQISPDSGGLPERSVSLTGAPESVQKAKDMLDDIVSR [M65D] are within error of each other in abundance fitness: 0.011 ± 0.061 for the first, 0.02 ± 0.072 for the second.

RTSMTEEYRVPDGMVGLIIGRGGEQINKIQQDSGCKVQISPDSGGLPERSVSLTGAPESVQKAKFMLDDIVSR [M65F] and RTSMTEEYRVPDGMVGLIIGRGGEQINKIQQDSGCKVQISPDSGGLPERSVSLTGAPESVQKAKHMLDDIVSR [M65H] are within error of each other in abundance fitness: -0.136 ± 0.089 for the first, -0.066 ± 0.078 for the second.

RTSMTEEYRVPDGMVGLIIGRGGEQINKIQQDSGCKVQISPDSGGLPERSVSLTGAPESVQKAKIMLDDIVSR [M65I] and RTSMTEEYRVPDGMVGLIIGRGGEQINKIQQDSGCKVQISPDSGGLPERSVSLTGAPESVQKAKKMLDDIVSR [M65K] are within error of each other in abundance fitness: -0.025 ± 0.075 for the first, 0.067 ± 0.059 for the second.

RTSMTEEYRVPDGMVGLIIGRGGEQINKIQQDSGCKVQISPDSGGLPERSVSLTGAPESVQKAKNMLDDIVSR [M65N] and RTSMTEEYRVPDGMVGLIIGRGGEQINKIQQDSGCKVQISPDSGGLPERSVSLTGAPESVQKAKQMLDDIVSR [M65Q] are within error of each other in abundance fitness: 0.017 ± 0.076 for the first, 0.131 ± 0.052 for the second.
